From PMC10053881 (Pharmaceutics, 2023)
Bridge positions count the residues as written; N and C are the ends. Square brackets hold non-standard residues; d marks the D form. Peptide text beside a SMILES is read from it. * marks the point of attachment. DOTA = O=C(O)CN1CCN(CC(=O)O)CCN(CC(=O)*)CCN(CC(=O)O)CC1; dPhe(4-NHCONH2) = NC(=O)Nc1ccc(C[C@@H](N)C(=O)O)cc1; Phe(4-Cl) = N[C@@H](Cc1ccc(Cl)cc1)C(=O)O

Assay: Biodistribution in SCID mice bearing twin HEK293-SST2R and wtHEK293 tumors
Conditions: male, mouse, iv, total radioactivity, mean ± sd, n = 4; for tissue uptake at 4 h: 4 h pi; for tissue uptake at 24 h: 24 h pi; for tissue uptake at 48 h: 48 h pi
Procedure: Freshly harvested HEK293-SST2R cells (1.2 × 10^7cells) and wtHEK293 cells (0.6 × 10^7 cells) were suspended in physiological saline (150 μL) and inoculated in the right and left flanks, respectively, of 43 male SCID mice (23.1 ± 1.6 g body weight, six weeks of age on arrival day; NCSR “Demokritos” Animal House, Athens, Greece). Mice were kept under aseptic conditions for 12–15 days and until palpable tumors (300–600 mg) were grown at the inoculation sites. […] Animals were euthanized at 4 and 24 h pi and immediately dissected. Blood samples, organs of interest and tumors were rapidly collected, weighed and counted in the gamma counter. […] Animals were euthanized at 4, 24 and 48 h pi and the procedure described above was followed. Biodistribution data were calculated with the aid of suitable standards of the administered dose as percent of the injected activity per gram tissue (%IA/g) with excel software (Microsoft Corporation, Redmond, Washington, […], USA). Results were provided as average ± sd values, n = 4 per time point, via the PRISM^TM 6.0 GraphPad software (San Diego, CA, USA). Statistical analysis was performed as previously described.

[1] = in vivo, Tu+ (HEK293-SST2R tumor) uptake, In-111 radioligands, iv 20–25 pmol
[2] = kidneys, Kidneys uptake, In-111 radioligands, iv 20–25 pmol
[3] = liver, Liver uptake, In-111 radioligands, iv 20–25 pmol
[4] = lungs, Lungs uptake, In-111 radioligands, iv 20–25 pmol
[5] = muscle, Muscle uptake, In-111 radioligands, iv 20–25 pmol
[6] = pancreas, Pancreas uptake, In-111 radioligands, iv 20–25 pmol
[7] = spleen, Spleen uptake, In-111 radioligands, iv 20–25 pmol
[8] = stomach, Stomach uptake, In-111 radioligands, iv 20–25 pmol
[9] = blood, 40 pmol, Blood uptake, Lu-177 radioligands, iv 40 pmol
[10] = femur, 40 pmol, Femur uptake, Lu-177 radioligands, iv 40 pmol
[11] = in vivo, 40 pmol, Tu+ (HEK293-SST2R tumor) uptake, Lu-177 radioligands, iv 40 pmol
[12] = in vivo, 40 pmol, Tu- (wtHEK293 tumor) uptake, Lu-177 radioligands, iv 40 pmol
[13] = intestines, 40 pmol, Intestines uptake, Lu-177 radioligands, iv 40 pmol
[14] = kidneys, 40 pmol, Kidneys uptake, Lu-177 radioligands, iv 40 pmol
[15] = liver, 40 pmol, Liver uptake, Lu-177 radioligands, iv 40 pmol
[16] = lungs, 40 pmol, Lungs uptake, Lu-177 radioligands, iv 40 pmol
[17] = muscle, 40 pmol, Muscle uptake, Lu-177 radioligands, iv 40 pmol
[18] = pancreas, 40 pmol, Pancreas uptake, Lu-177 radioligands, iv 40 pmol
[19] = spleen, 40 pmol, Spleen uptake, Lu-177 radioligands, iv 40 pmol
[20] = stomach, 40 pmol, Stomach uptake, Lu-177 radioligands, iv 40 pmol

Structure (SMILES): C[C@@H](O)[C@@H]1NC(=O)[C@H](CCCCN)NC(=O)[C@@H](Cc2ccc(NC(N)=O)cc2)NC(=O)[C@H](Cc2ccc(O)cc2)NC(=O)[C@H](NC(=O)[C@H](Cc2ccc(Cl)cc2)NC(=O)CN2CCN(CC(=O)O)CCN(CC(=O)O)CCN(CC(=O)O)CC2)CSSC[C@@H](C(=O)N[C@H](Cc2ccc(O)cc2)C(N)=O)NC1=O [[^111In]In-DOTA-LM3, metal not drawn] ({DOTA}-[Phe(4-Cl)][dC]Y[dPhe(4-NHCONH2)]KTC[dY]-NH2; disulfide 2-7)
- tissue uptake at 4 h [1]: 36.4 ± 2.05 %ID/g
- tissue uptake at 24 h [1]: 20.9 ± 3.02 %ID/g
- tissue uptake at 24 h (in vivo, Tu- (wtHEK293 tumor) uptake, In-111 radioligands, iv 20–25 pmol): 0.29 ± 0.01 %ID/g
- tissue uptake at 4 h [2]: 15.4 ± 0.58 %ID/g
- tissue uptake at 24 h [2]: 4.25 ± 0.77 %ID/g
- tissue uptake at 4 h [3]: 2.04 ± 0.25 %ID/g
- tissue uptake at 24 h [3]: 0.58 ± 0.06 %ID/g
- tissue uptake at 4 h [4]: 3.14 ± 0.48 %ID/g
- tissue uptake at 24 h [4]: 0.59 ± 0.12 %ID/g
- tissue uptake at 4 h [5]: 0.08 ± 0.01 %ID/g
- tissue uptake at 24 h [5]: 0.04 ± 0.02 %ID/g
- tissue uptake at 4 h [6]: 9.94 ± 0.79 %ID/g
- tissue uptake at 24 h [6]: 1.2 ± 0.14 %ID/g
- tissue uptake at 4 h [7]: 0.46 ± 0.05 %ID/g
- tissue uptake at 24 h [7]: 0.27 ± 0.03 %ID/g
- tissue uptake at 4 h [8]: 0.8 ± 0.17 %ID/g
- tissue uptake at 24 h [8]: 0.5 ± 0.09 %ID/g

Structure (SMILES): C[C@@H](O)[C@@H]1NC(=O)[C@H](CCCCN)NC(=O)[C@@H](Cc2ccc(NC(N)=O)cc2)NC(=O)[C@H](Cc2ccc(O)cc2)NC(=O)[C@H](NC(=O)[C@H](Cc2ccc(Cl)cc2)NC(=O)CN2CCN(CC(=O)O)CCN(CC(=O)O)CCN(CC(=O)O)CC2)CSSC[C@@H](C(=O)N[C@H](Cc2ccc(O)cc2)C(N)=O)NC1=O [[^177Lu]Lu-DOTA-LM3, metal not drawn] ({DOTA}-[Phe(4-Cl)][dC]Y[dPhe(4-NHCONH2)]KTC[dY]-NH2; disulfide 2-7)
- tissue uptake at 24 h [9]: 0.07 %ID/g
- tissue uptake at 48 h [9]: 0.06 ± 0.01 %ID/g
- tissue uptake at 4 h [10]: 1.56 ± 0.24 %ID/g
- tissue uptake at 24 h [10]: 1.38 ± 0.18 %ID/g
- tissue uptake at 48 h [10]: 0.88 ± 0.05 %ID/g
- tissue uptake at 48 h (heart, 40 pmol, Heart uptake, Lu-177 radioligands, iv 40 pmol): 0.13 ± 0.02 %ID/g
- tissue uptake at 4 h [11]: 45.5 ± 1.66 %ID/g
- tissue uptake at 24 h [11]: 37.6 ± 3.42 %ID/g
- tissue uptake at 48 h [11]: 18.8 ± 0.88 %ID/g
- tissue uptake at 4 h [12]: 1.66 ± 0.14 %ID/g
- tissue uptake at 24 h [12]: 1.53 ± 0.15 %ID/g
- tissue uptake at 48 h [12]: 0.75 ± 0.08 %ID/g
- tissue uptake at 4 h [13]: 2.71 ± 0.18 %ID/g
- tissue uptake at 24 h [13]: 1.52 ± 0.21 %ID/g
- tissue uptake at 48 h [13]: 0.78 ± 0.09 %ID/g
- tissue uptake at 4 h [14]: 11.5 ± 0.26 %ID/g
- tissue uptake at 24 h [14]: 5.14 ± 0.92 %ID/g
- tissue uptake at 48 h [14]: 2.47 ± 0.67 %ID/g
- tissue uptake at 4 h [15]: 6.79 ± 0.84 %ID/g
- tissue uptake at 24 h [15]: 3.38 ± 0.89 %ID/g
- tissue uptake at 48 h [15]: 1.47 ± 0.05 %ID/g
- tissue uptake at 4 h [16]: 15.7 ± 1.2 %ID/g
- tissue uptake at 24 h [16]: 8.88 ± 0.26 %ID/g
- tissue uptake at 48 h [16]: 5.11 ± 0.63 %ID/g
- tissue uptake at 4 h [17]: 0.07 ± 0.01 %ID/g
- tissue uptake at 24 h [17]: 0.05 ± 0.01 %ID/g
- tissue uptake at 48 h [17]: 0.05 %ID/g
- tissue uptake at 4 h [18]: 46.6 ± 2.2 %ID/g
- tissue uptake at 24 h [18]: 23 ± 4.32 %ID/g
- tissue uptake at 48 h [18]: 7.85 ± 0.94 %ID/g
- tissue uptake at 4 h [19]: 0.81 ± 0.06 %ID/g
- tissue uptake at 24 h [19]: 0.56 ± 0.07 %ID/g
- tissue uptake at 48 h [19]: 0.4 ± 0.03 %ID/g
- tissue uptake at 4 h [20]: 14.6 ± 1.85 %ID/g
- tissue uptake at 24 h [20]: 8.03 ± 1.43 %ID/g
- tissue uptake at 48 h [20]: 3.27 ± 0.34 %ID/g
